Measurements reported in publication PMC5260945 (Nature structural & molecular biology, 2011).

Key:
15N-labeled Ub = 15N-labeled Ub (UniProt P0CG47 1-76); test: NMR titration
[1] = biological target: Unlabeled Ub (from bovine red blood cells, Sigma-Aldrich) (bovine, UniProt P0CG53 1-76); test: NMR titration

Kd (15N-labeled Ub) [µM] | binding result [1] | Binder
134 ± 19 | binds | TRABID AnkUBD (aa 245-339) (domain or fragment) LEVDFKKLKQIKNRMKKTDWLFLNACVGVVEGDLAAIEAYKSSGGDIARQLTADEVRLLNRPSAFDVGYTLVHLAIRFQRQDMLAILLTEVSQQA
> 1200 |  | TRABID AnkUBD H317A (domain or fragment) LEVDFKKLKQIKNRMKKTDWLFLNACVGVVEGDLAAIEAYKSSGGDIARQLTADEVRLLNRPSAFDVGYTLVALAIRFQRQDMLAILLTEVSQQA
